The record followed here is patent US20250289897A1 (Eli Lilly, published 2025).

What is called EC50 is the concentration giving half of the maximal effect.

Test [1] addresses T1, human LEPR, full length, on HEK293-STAT3Luc-hLepR1 cells (Homo sapiens, UniProt P48357 22-1165).
T1 construct: also called human LEPR on live cell surface
T1 sequence: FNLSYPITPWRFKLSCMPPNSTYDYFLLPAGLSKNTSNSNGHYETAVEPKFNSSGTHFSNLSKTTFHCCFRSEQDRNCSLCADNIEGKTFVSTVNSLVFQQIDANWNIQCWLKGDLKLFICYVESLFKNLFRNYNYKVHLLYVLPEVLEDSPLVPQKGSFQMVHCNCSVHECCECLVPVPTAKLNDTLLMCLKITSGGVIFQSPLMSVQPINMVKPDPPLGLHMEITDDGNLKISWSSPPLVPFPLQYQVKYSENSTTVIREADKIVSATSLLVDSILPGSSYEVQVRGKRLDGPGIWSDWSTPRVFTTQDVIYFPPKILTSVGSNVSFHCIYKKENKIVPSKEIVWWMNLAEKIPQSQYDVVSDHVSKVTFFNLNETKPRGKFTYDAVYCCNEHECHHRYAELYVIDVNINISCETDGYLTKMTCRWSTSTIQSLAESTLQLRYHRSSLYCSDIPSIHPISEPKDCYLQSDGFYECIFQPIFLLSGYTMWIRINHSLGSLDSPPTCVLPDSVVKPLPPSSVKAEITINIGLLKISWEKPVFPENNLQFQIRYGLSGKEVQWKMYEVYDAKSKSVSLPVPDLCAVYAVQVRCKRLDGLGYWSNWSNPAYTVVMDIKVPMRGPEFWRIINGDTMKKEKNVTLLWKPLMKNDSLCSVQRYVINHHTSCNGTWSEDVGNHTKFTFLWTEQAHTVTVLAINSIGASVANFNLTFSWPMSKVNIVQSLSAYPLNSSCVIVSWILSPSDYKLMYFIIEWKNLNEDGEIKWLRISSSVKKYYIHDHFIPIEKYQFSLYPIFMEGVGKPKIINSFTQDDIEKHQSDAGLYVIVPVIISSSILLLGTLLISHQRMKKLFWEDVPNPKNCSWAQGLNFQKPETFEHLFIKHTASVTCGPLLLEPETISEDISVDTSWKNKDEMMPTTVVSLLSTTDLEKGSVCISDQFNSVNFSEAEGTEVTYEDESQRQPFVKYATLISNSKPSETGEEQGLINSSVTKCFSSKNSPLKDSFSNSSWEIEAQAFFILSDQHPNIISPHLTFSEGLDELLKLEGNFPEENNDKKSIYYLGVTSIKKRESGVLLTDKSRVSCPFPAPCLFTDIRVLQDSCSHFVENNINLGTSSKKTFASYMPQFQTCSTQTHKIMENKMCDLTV
As to the kind of experiment: flow cytometry on live HEK293-STAT3Luc-hLepR1 cells, AF647 anti-human IgG; average of 4 runs, SD 7.1. In general terms: A flow cytometer gives signals particle by particle.
Protocol: (§1) Cells were incubated in blocking buffer for 10 mins at room temperature. After one rinse with PBS, cells were transferred to U-bottom 96-well plate at 200 μL and 0.2˜0.26^e6 cells/well. […] Cells were then incubated with 30 μL/well of antibodies diluted in flow buffer at 1000 nM as high dose followed by 9-point dose response including 5-fold dilutions not including 0 (totaling 9 concentrations for each Antibody) for 30 minutes at 4° C. in dark.

The target of test [2] is T1, human LEPR, full length, on …. As to the kind of experiment: flow cytometry on live HEK293-STAT3Luc-hLepR1 cells, AF647 anti-human IgG; average of 4 runs, SD 1.0.
Protocol: as §1
The target of test [3] is T2, canine LEPR-ECD-His (canine).
T2 chain: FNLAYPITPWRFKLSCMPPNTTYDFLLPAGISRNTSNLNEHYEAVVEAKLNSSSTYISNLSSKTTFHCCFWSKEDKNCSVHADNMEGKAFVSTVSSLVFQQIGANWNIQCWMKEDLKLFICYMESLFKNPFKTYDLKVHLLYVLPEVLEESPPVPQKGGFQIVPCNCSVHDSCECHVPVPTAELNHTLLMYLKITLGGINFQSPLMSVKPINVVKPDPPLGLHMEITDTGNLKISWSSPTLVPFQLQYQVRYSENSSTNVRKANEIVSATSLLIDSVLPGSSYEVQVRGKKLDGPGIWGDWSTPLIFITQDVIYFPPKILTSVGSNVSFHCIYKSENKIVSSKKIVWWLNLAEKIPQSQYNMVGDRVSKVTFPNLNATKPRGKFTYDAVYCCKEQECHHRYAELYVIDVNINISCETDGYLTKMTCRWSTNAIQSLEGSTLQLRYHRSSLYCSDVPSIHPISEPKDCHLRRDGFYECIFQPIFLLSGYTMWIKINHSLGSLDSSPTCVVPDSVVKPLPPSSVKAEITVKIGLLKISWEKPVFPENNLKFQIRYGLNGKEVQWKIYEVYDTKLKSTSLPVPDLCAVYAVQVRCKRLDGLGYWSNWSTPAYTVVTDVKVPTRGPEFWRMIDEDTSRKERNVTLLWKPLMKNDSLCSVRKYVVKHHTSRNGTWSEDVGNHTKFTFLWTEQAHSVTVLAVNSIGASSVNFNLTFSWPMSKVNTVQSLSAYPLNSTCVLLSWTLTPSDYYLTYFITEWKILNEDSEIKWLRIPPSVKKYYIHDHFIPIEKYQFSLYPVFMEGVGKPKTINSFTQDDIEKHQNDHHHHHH
Nature of the test: SPR (Biacore T200), antibody captured on Protein A/G chip, His-tagged LEPR-ECD as analyte; summary sentence of Table 3.
Protocol: His-tagged ECDs were expressed and purified for each species and used for affinity analysis. A Protein A/G chip (Xantec, Cat #PAGHC200M) was utilized in this experiment with HBS-EP +0.01% BSA as running buffer. Antibodies were diluted to 1 μg/mL in running buffer and captured to a single flow cell on the chip surface. Each species of LEPR-ECD was diluted to 1000 nM in running buffer followed by 2-fold serial dilution. Each ligand concentration was injected over all flow cells at 100 L/min for 150 seconds followed by a 600 second dissociation phase. Regeneration was performed by injecting 10 mM glycine pH1.5 for 30 seconds at 10 μL/min. Data were analyzed in Biacore T200 Evaluation Software 3.1 by flow-cell 1 reference subtraction along with 0 nM blank subtraction. Data were fit globally using a “1:1 Binding” binding model to determine the on-rate (kₐ) and off-rate (kd) for each ligand. The affinity (KD) was calculated from the binding kinetics according to the relationship KD=kₐ/kd. Data reported as mean±standard deviation of experimental replicates.

B1: Antibody B (antibody, human IgG1, kappa, L234A L235A, V domains shown)
VH: EVQLLESGGGLVQPGGSLRLSCAASGFTFSSFAMSWVRQAPGKGLEWVSAISGSGGSTYSADSVRGRFTISRDNSKNTLYLQMNSLRAEDTAVYYCAKDQGDWDFLFDYWGQGTLVTVSS
VL: DIQMTQSPSFLSASVGDRVTITCRVSQGISSSLAWYQQKPGKAPKLLIYTASTLQSGVPSRFSGSGSGTEFTLTISSLQPEDFATYYCQQLNYYPFTFGQGTKVEIKR
The molecule B1 showed an EC50 in test [1] of 13.6 nM.

B2: Antibody C (antibody, human IgG1, kappa, L234A L235A, V domains shown)
VH: EVQLLESGGGLVQPGGSLRLSCAASGFTFSSFAMSWVRQAPGKGLEWVSAISGSGGSTYSADSVRGRFTISRDNSKNTLYLQMNSLRAEDTAVYYCAKDQGDWDFLFDYWGQGTLVTVSS
VL: DIQMTQSPSFLSASVGDRVTITCRASQGISSSLAWYQQKPGKAPKLLIYTASTLQSGVPSRFSGSGSGTEFTLTISSLQPEDFATYYCQQLNYYPFSFGQGTKVEIKR
The molecule B2 displayed a 50% effective concentration (EC50) in test [2] of 1.33 nM. Moreover, the binding result in test [3] was “binds”.
